# Earlier results, collected in PMC6928821.
# Where two headings read alike, the source gives them in different places.
# What was measured:
# p300 (Homo sapiens) = p300 (Homo sapiens) (UniProt Q09472)
# p300 Taz2 (Homo sapiens) [1] = biological target: p300 Taz2 (Homo sapiens) (UniProt Q09472)
# p300 Taz2 (Homo sapiens) [2] = biological target: p300 Taz2 (Homo sapiens) (UniProt Q09472); remark: listed apart in the source
# p53 TAD1 TAD1, sequence (P04637 13-37): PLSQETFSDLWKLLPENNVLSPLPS
# p300 Taz2 (Homo sapiens), sequence (Q09472 1723-1836): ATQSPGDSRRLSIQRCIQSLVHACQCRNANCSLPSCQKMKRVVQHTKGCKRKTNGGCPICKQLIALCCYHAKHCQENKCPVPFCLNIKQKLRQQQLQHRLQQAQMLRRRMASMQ
# p53 TAD1 1-39, sequence (P04637 1-39): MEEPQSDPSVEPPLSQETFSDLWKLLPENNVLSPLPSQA
# p300 (Homo sapiens), sequence (Q09472 2-2414): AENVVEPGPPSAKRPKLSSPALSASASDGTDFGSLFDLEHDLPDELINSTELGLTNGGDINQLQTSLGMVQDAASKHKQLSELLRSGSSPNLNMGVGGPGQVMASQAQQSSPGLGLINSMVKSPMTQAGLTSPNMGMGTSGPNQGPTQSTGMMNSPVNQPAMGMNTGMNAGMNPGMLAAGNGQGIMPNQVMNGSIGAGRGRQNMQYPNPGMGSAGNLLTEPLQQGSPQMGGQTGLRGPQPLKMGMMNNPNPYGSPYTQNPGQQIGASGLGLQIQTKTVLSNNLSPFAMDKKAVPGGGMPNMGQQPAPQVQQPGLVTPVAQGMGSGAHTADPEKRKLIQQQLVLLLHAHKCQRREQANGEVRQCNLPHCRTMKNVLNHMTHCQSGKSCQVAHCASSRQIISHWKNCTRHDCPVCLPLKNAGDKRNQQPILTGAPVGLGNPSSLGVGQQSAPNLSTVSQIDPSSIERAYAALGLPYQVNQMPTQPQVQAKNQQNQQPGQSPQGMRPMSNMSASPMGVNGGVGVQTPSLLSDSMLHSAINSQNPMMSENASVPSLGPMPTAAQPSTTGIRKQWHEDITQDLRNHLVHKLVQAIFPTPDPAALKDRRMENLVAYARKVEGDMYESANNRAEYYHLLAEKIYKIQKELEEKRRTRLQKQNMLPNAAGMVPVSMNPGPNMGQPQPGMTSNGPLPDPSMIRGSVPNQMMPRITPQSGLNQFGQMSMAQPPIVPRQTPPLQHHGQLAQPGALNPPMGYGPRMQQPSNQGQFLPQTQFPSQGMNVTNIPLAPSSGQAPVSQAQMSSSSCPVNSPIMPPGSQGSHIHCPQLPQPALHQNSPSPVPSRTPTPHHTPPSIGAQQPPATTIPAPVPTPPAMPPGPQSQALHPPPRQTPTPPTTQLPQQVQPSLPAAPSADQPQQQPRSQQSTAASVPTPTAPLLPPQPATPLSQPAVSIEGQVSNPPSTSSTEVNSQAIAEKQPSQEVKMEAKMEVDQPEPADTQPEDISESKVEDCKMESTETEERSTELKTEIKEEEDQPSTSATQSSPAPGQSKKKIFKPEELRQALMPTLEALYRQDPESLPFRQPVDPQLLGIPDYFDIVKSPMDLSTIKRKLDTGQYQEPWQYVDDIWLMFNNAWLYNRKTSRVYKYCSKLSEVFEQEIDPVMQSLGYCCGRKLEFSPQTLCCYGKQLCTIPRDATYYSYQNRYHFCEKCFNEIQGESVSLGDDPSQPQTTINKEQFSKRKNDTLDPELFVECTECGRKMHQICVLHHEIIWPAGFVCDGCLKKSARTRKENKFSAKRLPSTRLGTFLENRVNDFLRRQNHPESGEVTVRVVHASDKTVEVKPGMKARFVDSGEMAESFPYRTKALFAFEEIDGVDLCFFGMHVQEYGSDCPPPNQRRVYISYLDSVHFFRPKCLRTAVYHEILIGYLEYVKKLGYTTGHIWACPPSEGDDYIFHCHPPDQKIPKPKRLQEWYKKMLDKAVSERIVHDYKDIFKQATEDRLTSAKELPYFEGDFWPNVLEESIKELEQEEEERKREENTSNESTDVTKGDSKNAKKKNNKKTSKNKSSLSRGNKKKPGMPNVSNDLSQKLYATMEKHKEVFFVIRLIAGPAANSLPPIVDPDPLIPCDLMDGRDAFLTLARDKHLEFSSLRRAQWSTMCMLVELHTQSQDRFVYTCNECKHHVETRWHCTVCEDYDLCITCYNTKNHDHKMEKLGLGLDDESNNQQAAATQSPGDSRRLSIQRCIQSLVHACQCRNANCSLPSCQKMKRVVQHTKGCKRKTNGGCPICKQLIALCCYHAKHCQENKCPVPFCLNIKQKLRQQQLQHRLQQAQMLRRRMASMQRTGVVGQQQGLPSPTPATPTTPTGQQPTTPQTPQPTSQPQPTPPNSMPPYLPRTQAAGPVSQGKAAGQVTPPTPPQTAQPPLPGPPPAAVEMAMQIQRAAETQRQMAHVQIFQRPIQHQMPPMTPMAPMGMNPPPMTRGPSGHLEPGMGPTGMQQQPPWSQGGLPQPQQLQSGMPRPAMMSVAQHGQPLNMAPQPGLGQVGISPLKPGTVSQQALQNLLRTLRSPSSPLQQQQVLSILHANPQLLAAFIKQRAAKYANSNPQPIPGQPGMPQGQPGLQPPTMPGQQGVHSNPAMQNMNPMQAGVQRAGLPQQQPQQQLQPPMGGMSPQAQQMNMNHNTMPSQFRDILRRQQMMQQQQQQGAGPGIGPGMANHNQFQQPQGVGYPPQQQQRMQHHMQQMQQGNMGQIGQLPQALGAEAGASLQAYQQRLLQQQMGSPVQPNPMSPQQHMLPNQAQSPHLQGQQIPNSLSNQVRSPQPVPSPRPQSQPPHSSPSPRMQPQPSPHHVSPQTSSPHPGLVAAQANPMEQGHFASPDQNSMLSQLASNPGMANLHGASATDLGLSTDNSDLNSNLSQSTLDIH
Kd (p300 (Homo sapiens)),Kd (p300 Taz2 (Homo sapiens) [1]),Kd (p300 Taz2 (Homo sapiens) [2]),Substance
3 µM,,,p53 TAD1 1-39 (from UniProt P04637)
,0.2 µM,3 µM,p53 TAD1 TAD1 (from UniProt P04637)
